One series relates to MLL-AF9 AML cells. The series can be described thus: CFU assay of mouse MLL-AF9 AML cells. It is filed as cell-based. From the text:
(§1) FIGS. 7A-N. Blocking anti-LILRB3 antibody prevents monocytic AML development. (FIG. 7A) Epitope binning of 30 high-affinity IgGs. (FIG. 7B) CFU assay of mouse MLL-AF9 AML cells in the presence of above IgGs (n=3 independent experiments). (FIG. 7C) Binding affinities of the two IgGs from bin #3. (FIG. 7D) Upper: Schematic of treatment. Lower: Percentages of GFP^+ MLL-AF9 mouse AIL cells in peripheral blood (PB), bone marrow (BM), spleen (SPL), and liver (LV) of mice transplanted with AML cells expressing B3-FL or B3delICD and injected with IgG or anti-LILRB3 #1 N297A (n=3 independent mice). (FIG. 7E) Overall survival of mice transplanted with indicated AML cells as above. (FIG. 7F) CFU assay of MLL-AF9 mouse AML cells expressing B3-FL or B3delICD in the presence of IgG or anti-LILRB3 #1 N297A (n=3 independent experiments) (FIG. 7G) Upper: Schematic of treatment. Recipient mice were injected with mouse IgG or anti-mCD8 to deplete CD8 T cells. Lower: Percentages of GFP^+ MLL-AF9 mouse AML cells in peripheral blood (PB), bone marrow (BM), spleen (SPL), and liver (LV) of mice transplanted with AML cells expressing B3-FL or B3delICD and injected with IgG or anti-LILRB3 #1 LALAPG (n=4 mice). (FIG. 7H) Survival of mice as in panel h (n=4 independent mice). (FIG. 7I) Upper: Schematic of treatment. Lower: Whole-body images of NSG mice transplanted with luciferase-expressing THP-1 cells and treated with IgG or anti-LILRB3 #1 N297A (#1NA). (FIG. 7J) Overall survival of the mice shown in panel h (n=3 independent mice). (FIG. 7K) Upper: Schematic of treatment. Lower: Whole-body images of NSG mice transplanted with luciferase-expressing Molm13 cells, injected with activated T cells, and treated with IgG or #1NA. (FIG. 7L) Luciferase signaling as a function of time in mice treated as described in panel k. (FIG. 7M) Overall survival of mice treated as described in panel k (n=3 independent mice). (FIG. 7N) Analyses of T cells in peripheral blood of mice treated as described in panel 1 at 22 days after Molm13 AML cell transplantation. Upper: Flow cytometry analyses. Lower: Plot of T cell percentages (n=3 independent mice). The data are presented as mean±s.e.m, and p values were calculated by two-tailed t-test except for FIG. 7E, FIG. 7H, FIG. 7J and FIG. 7M by log-rank test.
FIGS. S6A-J. Development of anti-LILRB3 blocking antibodies for suppressing AML development. (FIG. S6a) Upper: Flow chart of strategy for development of fully humanized antibodies against LILRB3. Lower: The identified antibodies were tested in the LILRB3 chimeric receptor reporter cell assay. (FIG. S6b) ELISA results for LILRB3 binders. (FIG. S6c) EC50 values of the anti-LILRB3 antibodies based on ELISA. (FIG. S6d) Affinities of antibodies #32, #33, #67, and #45 to LILRB3 as determined by Octet. (FIG. S6e) Cross-reactivity of the anti-LILRB3 antibodies with LILRAs evaluated with LILRA binding analyses. (FIG. S6f) Cross-reactivity of the anti-LILRB3 antibodies with other LILRBs evaluated with LILRB binding analyses. (FIG. S6g) Interaction with TRAF2 contributes to the effect of LILRB3 on AML development. […] (FIG. S6j) NF-κB signaling target gene expression (measured by qPCR) in THP-1 cells from BM of xenografted NSG mice treated with anti-LILRB3 #1NA or IgG (n=3 individual samples). […]

Series [1] in a line: Myeloid LysM-Cre driven LILRB3-transgenic C57BL/6 mice, hematopoiesis. The format is in vivo, mouse. The procedure:
FIGS. S7A-C. […] (FIG. S7a) Schematic of generation of myeloid-specific LILRB3 transgenic mice. (FIGS. S7b-c) LILRB3 is expressed on myeloid cells in peripheral blood (PB), spleen (SPL) and bone marrow (BM) of LysM-Cre driven LILRB3 transgenic mice, which were treated by anti-LILRB3 #1 antibody (n=2 mice) or IgG (n=3 mice). Shown are representative flow cytometry plots (FIG. S7b) and result summary (FIG. S7c).
LILRB3 transgenic mice. LILRB3 cDNA was constructed into pR26 CAG AsiSI/MluI. Then the plasmid was purified with high concentration in the absence of endotoxin. Cas9 RNA, gRNA targeting mouse Rosa26 locus and the LILRB3 plasmid co-injected into mouse oocytes at the transgenic core facility of UTSW. The LILRB3 positive mice were identified by LILRB3 specific primers and crossbred with LysMcre mice (JAX, 004781). The LILRB3^+LysMcre^+ mice were analyzed with co-expression of LILRB3 and Mac-1 or Gr-1 in peripheral blood, spleen and bone marrow.

For series [2], the system named is MLL-AF9 AML cells expressing B3-FL or B3delICD. The series can be described thus: Immuno-competent mice transplanted with MLL-AF9 AML cells expressing B3-FL or B3delICD. It is filed as in vivo, mouse. The settings on record: versus control IgG.
Description: as §1, with “(FIG. 7N) Analyses of T cells in peripheral blood of mice treated as described in panel 1 at 22 days after Molm13 AML cell transplantation. Upper: Flow cytometry analyses. Lower: Plot of T cell percentages (n=3 independent mice).” left out, “test. […]” for “test.”

B1: anti-LILRB3 #1 N297A: IgG #1 with Fc glycosylation N297A mutation, defective Fc-mediated effector functions (antibody, V domains shown)
VH: EVQLVESGGGVVQPGRSLRLSCAASGFTFSSYGMHWVRQAPGKGLEWVAFIRYDGSNKYYADSVKGRFTISRDNSKNTLYLQMNSLRAEDTAVYYCAKAGFSGWYYYGMDVWGQGTMVTVSS
VL: DIVMTQSPSSLSASVGDRLTITCRASQSISTYLNWYQQKPGKAPKLLIYGASSLQSGVPSRFSGSGSGTDFTLTISSLQPEDFATYFCQQSYGLPLTFGGGTKVDIK
In the case of B1, the “CFU formation of AML cells expressing mutant LILRB3 that cannot interact with TRAF2” value with MLL-AF9 AML cells (AAA mutant (QEE509-511AAA)) is listed as “did not decrease CFU formation”. The “CFU formation by B3-FL AML cells” value in the series with MLL-AF9 AML cells (versus IgG) is given as “decreased CFU formation”. Besides, the “normal hematopoiesis and leukocytosis” value in series [1] (LILRB3 transgenic mice) was “did not affect normal hematopoiesis and leukocytosis”. In addition, the toxicity entry in series [1] (suggested from the transgenic mice) was “low toxicity”. Further, in series [2], the “B3del ICD AML development” value is “no detectable difference” and the “development of LILRB3-expressing (B3-FL) AML” value is given as “significantly delayed development of LILRB3-expressing AML”.
